Legend:
[1] = target: T1, Recombinant human Syntaxin6 (human, UniProt O43752 1-255); experiment: pull-down
T1 sequence: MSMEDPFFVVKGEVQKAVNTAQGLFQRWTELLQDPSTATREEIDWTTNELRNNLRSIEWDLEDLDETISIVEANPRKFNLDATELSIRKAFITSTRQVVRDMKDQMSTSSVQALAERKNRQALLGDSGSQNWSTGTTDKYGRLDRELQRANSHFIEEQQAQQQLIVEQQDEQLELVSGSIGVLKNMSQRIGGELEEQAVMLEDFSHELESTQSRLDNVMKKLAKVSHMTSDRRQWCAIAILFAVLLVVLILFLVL

[2] = target: T2, Recombinant human Vti1a (human, UniProt Q96AJ9 1-217); experiment: pull-down
T2 sequence (looked up): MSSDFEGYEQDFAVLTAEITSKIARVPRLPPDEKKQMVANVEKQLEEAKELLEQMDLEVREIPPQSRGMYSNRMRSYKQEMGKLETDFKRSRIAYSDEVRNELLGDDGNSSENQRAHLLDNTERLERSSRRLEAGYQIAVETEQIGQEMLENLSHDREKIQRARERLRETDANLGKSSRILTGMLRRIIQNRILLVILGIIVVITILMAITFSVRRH

binding result [1]: binds
binding result [2]: binds
B1: GST-VAMP4 (natural protein, human, UniProt O75379 1-141, looked up)
chain: MPPKFKRHLNDDDVTGSVKSERRNLLEDDSDEEEDFFLRGPSGPRFGPRNDKIKHVQNQVDEVIDVMQENITKVIERGERLDELQDKSESLSDNATAFSNRSKQLRRQMWWRGCKIKAIMALVAAILLLVIIILIVMKYRT

Reference: publication doi:10.1101/2021.02.09.430442 (bioRxiv, 2021)
